In the supplement of paper PMC10065799, “High-throughput profiling of sequence recognition by tyrosine kinases and SH2 domains using bacterial peptide display” (eLife, 2023):

Legend:
AncSZ = assay: phosphorylation enrichment, bacterial display (enrichment ratio); higher = better substrate or ligand; peptides without Tyr show the background
EPHB1 = EPHB1 (UniProt P54762); assay: as above
EPHB2 = EPHB2 (UniProt P29323); assay: as above
FGFR1 = FGFR1 (UniProt P11362); assay: as above
FGFR3 = FGFR3 (UniProt P22607); assay: as above
Fer (mouse) = assay: as above
Fes = Fes (UniProt P07332); assay: as above
Fyn = Fyn (UniProt P06241); assay: as above
Hck = Hck (UniProt P08631); assay: as above
Jak2 = Jak2 (UniProt O60674); assay: as above
MERTK = MERTK (UniProt Q12866); assay: as above
c-Abl (mouse) = assay: as above
c-Src = assay: as above
Grb2 SH2 = Grb2 SH2 (UniProt P62993); assay: SH2 binding enrichment of the phosphorylated peptide, bacterial display (enrichment ratio); higher = better substrate or ligand; peptides without Tyr show the background
SHP2-C SH2 = assay: as above
c-Src SH2 = assay: as above
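Throughout, for SH2 binding enrichment of the phosphorylated peptide, bacterial display: peptide library displayed on the E. coli surface as eCPX fusions, selected cells deep-sequenced, score is each peptide's frequency after selection divided by its frequency in the input.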
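Throughout, for phosphorylation enrichment, bacterial display: 11-residue human phosphosite peptides and single-mutation variants displayed on the E. coli surface, counted by deep sequencing, each peptide's frequency after selection divided by its frequency in the unselected input library; frequency after pTyr selection over input frequency; kinase dosed for 20-30% of maximal phosphorylation in three min.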

MERTK, sequence (Q12866 whole entry, looked up): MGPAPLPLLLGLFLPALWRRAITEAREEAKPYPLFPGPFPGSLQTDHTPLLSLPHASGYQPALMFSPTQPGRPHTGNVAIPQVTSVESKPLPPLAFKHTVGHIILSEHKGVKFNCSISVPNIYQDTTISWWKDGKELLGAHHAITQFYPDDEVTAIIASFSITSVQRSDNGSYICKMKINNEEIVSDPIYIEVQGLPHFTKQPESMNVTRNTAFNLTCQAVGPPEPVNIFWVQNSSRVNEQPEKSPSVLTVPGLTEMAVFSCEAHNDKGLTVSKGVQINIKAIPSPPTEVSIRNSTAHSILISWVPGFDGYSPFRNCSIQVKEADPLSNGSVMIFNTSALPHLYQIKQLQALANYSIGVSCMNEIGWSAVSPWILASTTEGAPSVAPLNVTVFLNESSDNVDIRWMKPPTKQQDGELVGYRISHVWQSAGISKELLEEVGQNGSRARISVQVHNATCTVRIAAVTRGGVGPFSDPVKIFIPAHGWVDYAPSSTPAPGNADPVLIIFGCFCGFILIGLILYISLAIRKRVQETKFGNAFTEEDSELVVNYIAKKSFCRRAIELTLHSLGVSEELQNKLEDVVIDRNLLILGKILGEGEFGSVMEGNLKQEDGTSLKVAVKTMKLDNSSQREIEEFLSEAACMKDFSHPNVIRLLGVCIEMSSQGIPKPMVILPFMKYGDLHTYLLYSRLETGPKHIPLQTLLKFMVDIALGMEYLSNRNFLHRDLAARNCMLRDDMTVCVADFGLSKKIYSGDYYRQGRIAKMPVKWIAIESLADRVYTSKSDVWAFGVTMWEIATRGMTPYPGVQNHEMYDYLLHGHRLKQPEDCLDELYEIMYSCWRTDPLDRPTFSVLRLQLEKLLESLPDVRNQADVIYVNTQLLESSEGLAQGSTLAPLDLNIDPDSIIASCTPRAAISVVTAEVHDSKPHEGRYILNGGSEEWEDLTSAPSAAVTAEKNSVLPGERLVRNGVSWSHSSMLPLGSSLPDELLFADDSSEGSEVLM
Fes, sequence (P07332 whole entry, looked up): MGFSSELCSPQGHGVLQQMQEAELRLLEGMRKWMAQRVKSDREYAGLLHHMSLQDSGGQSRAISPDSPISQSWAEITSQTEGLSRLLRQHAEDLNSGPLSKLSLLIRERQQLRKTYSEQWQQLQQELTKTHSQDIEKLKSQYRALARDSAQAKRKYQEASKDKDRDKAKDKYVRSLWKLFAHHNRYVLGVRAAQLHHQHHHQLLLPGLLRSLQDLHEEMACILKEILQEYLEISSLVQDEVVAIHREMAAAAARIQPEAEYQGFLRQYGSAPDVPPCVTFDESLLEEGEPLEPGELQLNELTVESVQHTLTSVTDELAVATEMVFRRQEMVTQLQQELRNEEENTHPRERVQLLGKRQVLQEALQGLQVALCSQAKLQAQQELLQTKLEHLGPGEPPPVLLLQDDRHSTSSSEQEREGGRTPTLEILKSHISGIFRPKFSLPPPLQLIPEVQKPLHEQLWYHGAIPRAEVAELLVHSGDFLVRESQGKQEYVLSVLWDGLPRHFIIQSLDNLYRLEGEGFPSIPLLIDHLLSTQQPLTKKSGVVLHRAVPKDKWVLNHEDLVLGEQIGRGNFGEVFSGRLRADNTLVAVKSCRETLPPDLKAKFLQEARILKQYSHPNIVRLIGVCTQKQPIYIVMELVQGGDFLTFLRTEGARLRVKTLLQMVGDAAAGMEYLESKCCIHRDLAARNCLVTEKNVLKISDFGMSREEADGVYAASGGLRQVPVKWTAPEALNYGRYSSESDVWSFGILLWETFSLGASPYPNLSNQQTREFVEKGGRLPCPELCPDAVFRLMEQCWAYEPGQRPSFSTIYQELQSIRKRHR
Jak2, sequence (O60674 whole entry, looked up): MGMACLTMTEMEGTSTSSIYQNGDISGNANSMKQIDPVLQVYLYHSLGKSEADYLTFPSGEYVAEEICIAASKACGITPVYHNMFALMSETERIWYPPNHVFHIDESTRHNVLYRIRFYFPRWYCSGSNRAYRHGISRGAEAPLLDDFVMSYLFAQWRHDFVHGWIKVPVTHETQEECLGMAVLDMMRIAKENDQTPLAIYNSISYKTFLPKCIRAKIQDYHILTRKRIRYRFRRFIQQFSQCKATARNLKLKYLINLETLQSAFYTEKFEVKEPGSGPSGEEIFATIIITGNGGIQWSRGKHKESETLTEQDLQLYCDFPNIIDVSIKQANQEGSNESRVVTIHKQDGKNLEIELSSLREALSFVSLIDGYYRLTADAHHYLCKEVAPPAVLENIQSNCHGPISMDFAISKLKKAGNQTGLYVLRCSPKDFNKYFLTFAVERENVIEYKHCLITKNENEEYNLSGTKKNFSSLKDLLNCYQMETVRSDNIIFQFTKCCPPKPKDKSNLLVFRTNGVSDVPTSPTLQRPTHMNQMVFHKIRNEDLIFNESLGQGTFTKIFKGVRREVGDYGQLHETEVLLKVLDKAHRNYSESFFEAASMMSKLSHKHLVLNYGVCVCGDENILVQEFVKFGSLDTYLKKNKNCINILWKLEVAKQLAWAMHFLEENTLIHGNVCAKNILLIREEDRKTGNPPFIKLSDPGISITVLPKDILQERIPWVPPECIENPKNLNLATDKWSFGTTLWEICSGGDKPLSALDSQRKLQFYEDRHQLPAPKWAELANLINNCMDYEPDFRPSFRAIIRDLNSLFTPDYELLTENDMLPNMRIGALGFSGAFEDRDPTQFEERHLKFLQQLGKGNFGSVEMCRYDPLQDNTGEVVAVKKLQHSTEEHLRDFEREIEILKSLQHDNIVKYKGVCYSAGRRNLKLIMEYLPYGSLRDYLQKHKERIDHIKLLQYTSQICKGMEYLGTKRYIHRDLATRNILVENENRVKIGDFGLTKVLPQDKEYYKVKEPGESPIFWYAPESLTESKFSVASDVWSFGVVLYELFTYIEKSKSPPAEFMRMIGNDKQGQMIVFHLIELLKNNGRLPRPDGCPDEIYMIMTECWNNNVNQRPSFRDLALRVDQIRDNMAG
EPHB1, sequence (P54762 whole entry, looked up): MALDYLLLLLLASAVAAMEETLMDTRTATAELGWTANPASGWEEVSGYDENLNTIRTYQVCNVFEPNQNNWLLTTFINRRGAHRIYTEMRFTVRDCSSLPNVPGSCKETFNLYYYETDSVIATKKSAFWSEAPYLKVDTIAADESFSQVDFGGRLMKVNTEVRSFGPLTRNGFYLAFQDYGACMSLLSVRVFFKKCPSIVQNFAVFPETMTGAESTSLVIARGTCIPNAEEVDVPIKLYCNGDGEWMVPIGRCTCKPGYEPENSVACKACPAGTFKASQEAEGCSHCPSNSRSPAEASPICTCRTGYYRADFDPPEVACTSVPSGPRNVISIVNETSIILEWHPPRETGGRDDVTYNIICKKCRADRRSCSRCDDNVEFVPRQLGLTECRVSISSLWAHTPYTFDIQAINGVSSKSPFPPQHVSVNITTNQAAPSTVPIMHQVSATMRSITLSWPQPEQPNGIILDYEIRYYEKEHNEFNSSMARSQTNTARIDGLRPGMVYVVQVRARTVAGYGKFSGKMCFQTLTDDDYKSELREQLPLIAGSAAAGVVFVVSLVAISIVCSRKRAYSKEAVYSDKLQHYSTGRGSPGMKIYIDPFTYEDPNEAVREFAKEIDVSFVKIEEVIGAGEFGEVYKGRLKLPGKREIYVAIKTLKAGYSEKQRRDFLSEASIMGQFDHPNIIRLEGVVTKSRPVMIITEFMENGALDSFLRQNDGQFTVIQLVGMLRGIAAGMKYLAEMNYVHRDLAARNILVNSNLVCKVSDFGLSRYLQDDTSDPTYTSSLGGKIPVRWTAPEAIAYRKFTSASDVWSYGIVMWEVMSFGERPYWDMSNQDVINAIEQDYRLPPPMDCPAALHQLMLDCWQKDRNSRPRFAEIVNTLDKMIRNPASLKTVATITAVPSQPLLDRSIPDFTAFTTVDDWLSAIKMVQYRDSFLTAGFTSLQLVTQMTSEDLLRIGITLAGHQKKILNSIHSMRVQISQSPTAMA
FGFR3, sequence (P22607 whole entry, looked up): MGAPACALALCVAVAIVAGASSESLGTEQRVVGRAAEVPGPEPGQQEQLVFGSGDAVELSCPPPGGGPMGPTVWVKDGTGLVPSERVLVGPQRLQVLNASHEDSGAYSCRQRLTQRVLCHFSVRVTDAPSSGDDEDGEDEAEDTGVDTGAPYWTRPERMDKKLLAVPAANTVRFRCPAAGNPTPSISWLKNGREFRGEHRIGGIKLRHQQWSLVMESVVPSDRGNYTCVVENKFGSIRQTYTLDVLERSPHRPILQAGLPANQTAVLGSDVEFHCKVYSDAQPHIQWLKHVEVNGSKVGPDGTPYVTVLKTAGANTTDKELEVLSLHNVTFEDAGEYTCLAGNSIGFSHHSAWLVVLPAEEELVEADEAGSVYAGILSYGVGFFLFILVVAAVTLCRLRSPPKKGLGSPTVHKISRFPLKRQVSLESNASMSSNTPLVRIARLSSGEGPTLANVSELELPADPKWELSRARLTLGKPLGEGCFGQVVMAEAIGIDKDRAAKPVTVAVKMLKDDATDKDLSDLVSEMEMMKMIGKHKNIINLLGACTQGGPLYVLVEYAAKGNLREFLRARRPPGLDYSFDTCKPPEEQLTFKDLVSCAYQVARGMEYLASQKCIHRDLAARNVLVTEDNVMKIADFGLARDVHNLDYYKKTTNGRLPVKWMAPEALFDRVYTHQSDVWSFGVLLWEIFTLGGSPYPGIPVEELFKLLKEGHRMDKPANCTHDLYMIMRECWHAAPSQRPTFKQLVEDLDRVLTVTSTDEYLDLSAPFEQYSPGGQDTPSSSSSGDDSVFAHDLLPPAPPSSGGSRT
Grb2 SH2, sequence (P62993 whole entry, looked up): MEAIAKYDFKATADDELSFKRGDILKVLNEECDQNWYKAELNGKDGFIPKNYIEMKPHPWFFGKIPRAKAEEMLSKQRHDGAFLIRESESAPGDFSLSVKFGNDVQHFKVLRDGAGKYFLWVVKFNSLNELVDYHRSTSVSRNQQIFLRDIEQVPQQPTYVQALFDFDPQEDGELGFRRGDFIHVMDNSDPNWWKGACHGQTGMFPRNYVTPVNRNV

| Sequence | phosphorylation enrichment (AncSZ) | phosphorylation enrichment (EPHB1) | phosphorylation enrichment (EPHB2) | phosphorylation enrichment (FGFR1) | phosphorylation enrichment (FGFR3) | phosphorylation enrichment (Fer (mouse)) | phosphorylation enrichment (Fes) | phosphorylation enrichment (Fyn) | phosphorylation enrichment (Hck) | phosphorylation enrichment (Jak2) | phosphorylation enrichment (MERTK) | phosphorylation enrichment (c-Abl (mouse)) | phosphorylation enrichment (c-Src) | SH2 binding enrichment (Grb2 SH2) | SH2 binding enrichment (SHP2-C SH2) | SH2 binding enrichment (c-Src SH2) |
| --- | --- | --- | --- | --- | --- | --- | --- | --- | --- | --- | --- | --- | --- | --- | --- | --- |
| TTPFNYSFIFK [RAB14_Y8_A4T_YF] | 1.2 | 2.1 | 0.734 | 0.725 | 0.793 | 0.74 | 1.28 | 0.705 | 0.695 | 0.941 | 1.93 | 0.86 | 0.593 | 1.1 | 1.82 | 1.86 |
| TTSQPYRRLCS [USH2A_Y534_C536R] | 0.412 | 0.247 | 0.393 | 0.287 | 0.479 | 0.315 | 0.866 | 0.29 | 0.286 | 0.355 | 0.316 | 0.288 | 0.356 | 0.622 | 0.542 | 0.581 |
| TVLEPYADPYY [ZC3H18_Y367] | 2.42 | 0.566 | 0.697 | 0.785 | 0.905 | 0.516 | 1.69 | 1.23 | 0.834 | 1.58 | 0.712 | 1.25 | 2.44 | 0.773 | 0.262 | 1.29 |
| TYEYKYPEGSS [TGM4_Y440] | 1.32 | 0.526 | 0.492 | 0.517 | 0.755 | 0.392 | 1.11 | 0.394 | 0.449 | 1.05 | 0.414 | 0.777 | 0.525 | 0.821 | 0.701 | 0.854 |
| TYGNLYGSRKQ [YIPF7_Y59_A54T] | 0.655 | 0.434 | 0.74 | 0.486 | 0.467 | 1.38 | 0.6 | 6.14 | 13.2 | 0.73 | 0.89 | 0.864 | 7.59 | 0.94 | 0.945 | 0.632 |
| VAMELYVFGGV [GAN_Y471] | 1.28 | 0.799 | 0.681 | 0.513 | 0.781 | 0.574 | 1.64 | 0.533 | 0.535 | 1.37 | 0.928 | 1.05 | 1.13 | 0.808 | 0.685 | 0.395 |
| VDTRAYFTSAT [MT-CO1_Y304] | 0.61 | 0.37 | 0.361 | 0.397 | 0.459 | 0.256 | 0.687 | 0.39 | 0.479 | 0.525 | 0.366 | 0.382 | 0.38 | 1.01 | 0.678 | 0.693 |
| VECHPYFTQPK [AKR1D1_Y199] | 0.938 | 0.525 | 0.517 | 0.591 | 0.709 | 0.421 | 1.01 | 0.559 | 0.515 | 0.819 | 0.371 | 0.617 | 0.779 | 0.765 | 0.637 | 0.444 |
| VEDPEYAVTQL [STOML2_Y124] | 1.24 | 0.466 | 0.531 | 0.477 | 0.516 | 0.709 | 0.997 | 0.398 | 0.463 | 0.893 | 0.409 | 0.597 | 0.549 | 1.11 | 0.835 | 0.483 |
| VEQIHYIGQNE [HMOX2_Y140_R137Q] | 0.665 | 0.445 | 0.396 | 0.483 | 0.612 | 0.424 | 0.663 | 0.462 | 0.461 | 0.547 | 0.408 | 0.423 | 0.452 | 0.834 | 0.582 | 0.465 |
| VERRVYAEDPY [PCCA_Y401_C398R] | 0.826 | 0.459 | 0.507 | 0.631 | 0.664 | 0.424 | 0.962 | 0.764 | 0.566 | 0.663 | 0.46 | 0.566 | 0.681 | 0.89 | 0.506 | 0.55 |
| VFLGAYDRFLP [SLC22A5_Y486_YF] | 1.19 | 1.01 | 1.58 | 0.704 | 0.656 | 1.18 | 1.02 | 2.96 | 4 | 0.976 | 5.13 | 0.782 | 4.15 | 0.908 | 0.852 | 1.06 |
| VGIMLYGVDSR [PKD1_Y3143] | 1.12 | 0.575 | 0.626 | 0.592 | 0.792 | 0.634 | 1.19 | 0.572 | 0.61 | 1.05 | 0.383 | 0.77 | 0.435 | 0.888 | 0.63 | 0.489 |
| VHFARYLAMNK [HARS1_Y138_P134H] | 0.864 | 0.504 | 0.555 | 0.511 | 0.771 | 0.44 | 0.902 | 0.557 | 0.506 | 0.661 | 0.509 | 0.565 | 0.553 | 0.931 | 0.72 | 0.403 |
| VIKDKYPQARF [APTX_Y209_K211Q_YF] | 0.453 | 0.436 | 0.326 | 0.367 | 0.469 | 0.328 | 0.579 | 0.35 | 0.308 | 0.553 | 0.406 | 0.47 | 0.44 | 1.06 | 1.02 | 0.562 |
| VKPENYRRLDV [VHL_Y175_I180V] | 0.532 | 0.561 | 0.386 | 0.429 | 0.506 | 0.334 | 0.593 | 0.461 | 0.387 | 0.463 | 0.465 | 0.814 | 0.372 | 0.778 | 0.635 | 0.465 |
| VLALWYYYLTH [ZDHHC23_Y127] | 1.45 | 0.81 | 0.74 | 6.87 | 5.65 | 0.724 | 1.64 | 0.646 | 0.783 | 2.57 | 2.99 | 0.964 | 1.24 | 2.15 | 1.62 | 1.5 |

| Sequence | phosphorylation enrichment (AncSZ) | phosphorylation enrichment (EPHB1) | phosphorylation enrichment (EPHB2) | phosphorylation enrichment (FGFR1) | phosphorylation enrichment (FGFR3) | phosphorylation enrichment (Fer (mouse)) | phosphorylation enrichment (Fes) | phosphorylation enrichment (Fyn) | phosphorylation enrichment (Hck) | phosphorylation enrichment (Jak2) | phosphorylation enrichment (MERTK) | phosphorylation enrichment (c-Abl (mouse)) | phosphorylation enrichment (c-Src) | SH2 binding enrichment (Grb2 SH2) | SH2 binding enrichment (SHP2-C SH2) | SH2 binding enrichment (c-Src SH2) |
| --- | --- | --- | --- | --- | --- | --- | --- | --- | --- | --- | --- | --- | --- | --- | --- | --- |
| VMIYAYLLHRG [PTEN_Y138_C136Y] | 0.821 | 0.479 | 0.455 | 0.351 | 0.703 | 0.371 | 0.856 | 0.443 | 0.697 | 0.733 | 0.591 | 0.748 | 0.46 | 1.34 | 0.741 | 0.806 |
| VNNAVYGIDAM [EIF3J_Y143] | 0.86 | 0.417 | 0.437 | 0.506 | 0.502 | 0.486 | 0.88 | 1.09 | 0.829 | 0.764 | 0.426 | 0.509 | 1 | 0.771 | 0.763 | 0.507 |
| VPEANYTSDEE [STK33_Y439_D436E] | 1.42 | 0.897 | 0.691 | 0.607 | 0.947 | 0.721 | 1.52 | 0.665 | 0.576 | 1.99 | 0.699 | 1.17 | 0.614 | 0.831 | 0.579 | 0.46 |
| VPLATYMQIFK [RPL21_Y30_R32Q_YF] | 0.745 | 1.83 | 0.648 | 0.471 | 0.54 | 0.308 | 0.654 | 0.887 | 1.8 | 0.836 | 0.613 | 0.361 | 1.54 | 0.859 | 0.682 | 0.866 |
| VRRVGYVSGWG [HP_Y280_G276R] | 0.613 | 0.422 | 0.423 | 0.373 | 0.391 | 0.469 | 0.61 | 0.388 | 0.438 | 0.514 | 0.387 | 0.642 | 0.434 | 0.95 | 0.579 | 0.494 |
| VRVQLYDPDYM [CYP4A22_Y100] | 1.56 | 1.27 | 0.776 | 0.538 | 0.741 | 0.599 | 1.27 | 0.493 | 0.807 | 1.15 | 0.887 | 0.79 | 0.615 | 1.08 | 1.45 | 0.545 |
| VTVLDYDKIGK [SYT1_Y365] | 0.621 | 0.45 | 0.541 | 0.505 | 0.515 | 0.404 | 0.828 | 0.343 | 0.648 | 0.501 | 0.48 | 0.482 | 0.391 | 0.774 | 0.777 | 2.88 |
| VVSMNYRVGAL [BCHE_Y174] | 0.703 | 0.511 | 0.445 | 0.524 | 0.534 | 0.333 | 0.802 | 0.336 | 0.43 | 0.722 | 0.362 | 0.556 | 0.342 | 0.475 | 0.771 | 0.446 |
| WCSNDYLGMSQ [ALAS2_Y199_R204Q] | 2.88 | 1.52 | 0.944 | 3.03 | 2.11 | 0.642 | 1.02 | 0.541 | 0.738 | 4.19 | 0.478 | 0.782 | 1.06 | 1.1 | 0.738 | 0.717 |
| WGLCSYYETSK [MAGED2_Y448_R446C] | 1.38 | 0.865 | 0.73 | 0.76 | 1.02 | 0.572 | 1.31 | 0.488 | 0.58 | 1.35 | 0.56 | 0.818 | 0.712 | 0.765 | 0.526 | 0.586 |
| WHHTFYNEPRV [ACTA1_Y93_L96P] | 0.965 | 0.573 | 0.497 | 0.522 | 0.561 | 0.582 | 1.03 | 0.429 | 0.552 | 0.794 | 0.59 | 0.709 | 0.508 | 1.4 | 1.07 | 1.57 |
| WKESWYSMRKM [FGB_Y475_G472E] | 1.05 | 0.714 | 0.669 | 0.513 | 0.738 | 0.535 | 1.34 | 0.554 | 0.591 | 1.33 | 0.544 | 0.792 | 0.672 | 1.08 | 0.969 | 0.708 |
| WLFFRYLAIGC [ATP2A2_Y836] | 1.51 | 0.633 | 0.496 | 0.503 | 0.798 | 0.573 | 1.55 | 0.477 | 0.462 | 1.49 | 0.482 | 1.09 | 0.432 | 0.826 | 0.573 | 0.36 |
| WNEVGYDDIGG [VCP_Y203_L198W] | 1.07 | 0.608 | 0.515 | 0.557 | 0.724 | 0.53 | 1.27 | 0.422 | 0.538 | 1.14 | 0.406 | 0.737 | 0.502 | 0.973 | 0.566 | 9.33 |
| WNGDKYAATTT [TRIM39_Y439] | 0.717 | 0.462 | 0.592 | 0.654 | 0.679 | 0.446 | 0.731 | 0.48 | 0.52 | 0.729 | 0.381 | 0.513 | 0.421 | 0.994 | 0.61 | 0.481 |
| WQQQSYLDFGI [CTNNB1_Y30_S33F] | 0.883 | 0.635 | 0.564 | 0.816 | 0.757 | 0.39 | 1.04 | 0.524 | 0.441 | 0.974 | 0.418 | 0.658 | 0.544 | 0.999 | 0.776 | 0.592 |
